Measurements as given in patent US20020037286A1 (published 2002).

T1: zyxin (endogenous, Jurkat T-cells) (human, UniProt Q15942 2-572)
T1 sequence (looked up): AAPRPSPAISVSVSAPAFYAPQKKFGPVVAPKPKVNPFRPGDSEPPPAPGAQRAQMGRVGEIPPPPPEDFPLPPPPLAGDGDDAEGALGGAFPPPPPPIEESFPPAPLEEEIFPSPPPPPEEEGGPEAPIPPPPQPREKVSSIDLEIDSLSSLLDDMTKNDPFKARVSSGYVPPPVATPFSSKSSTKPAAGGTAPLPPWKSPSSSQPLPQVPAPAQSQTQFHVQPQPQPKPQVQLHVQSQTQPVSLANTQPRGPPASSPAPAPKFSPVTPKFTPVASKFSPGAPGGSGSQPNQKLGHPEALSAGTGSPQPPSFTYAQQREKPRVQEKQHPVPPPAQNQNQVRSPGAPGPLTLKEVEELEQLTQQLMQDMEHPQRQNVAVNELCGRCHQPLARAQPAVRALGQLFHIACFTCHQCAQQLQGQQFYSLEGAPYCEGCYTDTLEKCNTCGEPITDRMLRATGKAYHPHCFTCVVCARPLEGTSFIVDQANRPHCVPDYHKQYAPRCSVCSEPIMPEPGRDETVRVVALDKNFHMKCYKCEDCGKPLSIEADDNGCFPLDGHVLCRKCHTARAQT

B1: WASP (endogenous, Jurkat T-cells) (other, human, UniProt P42768 2-502, looked up)
chain: SGGPMGGRPGGRGAPAVQQNIPSTLLQDHENQRLFEMLGRKCLTLATAVVQLYLALPPGAEHWTKEHCGAVCFVKDNPQKSYFIRLYGLQAGRLLWEQELYSQLVYSTPTPFFHTFAGDDCQAGLNFADEDEAQAFRALVQEKIQKRNQRQSGDRRQLPPPPTPANEERRGGLPPLPLHPGGDQGGPPVGPLSLGLATVDIQNPDITSSRYRGLPAPGPSPADKKRSGKKKISKADIGAPSGFKHVSHVGWDPQNGFDVNNLDPDLRSLFSRAGISEAQLTDAETSKLIYDFIEDQGGLEAVRQEMRRQEPLPPPPPPSRGGNQLPRPPIVGGNKGRSGPLPPVPLGIAPPPPTPRGPPPPGRGGPPPPPPPATGRSGPLPPPPPGAGGPPMPPPPPPPPPPPSSGNGPAPPPLPPALVPAGGLAPGGGRGALLDQIRQGIQLNKTPGAPESSALQPPPQSSEGLVGALMHVMQKRSRAIHSSDEGEDQAGDEDEDDEWDD

Tests used:
[1] = biological target: Arp2/3 complex (endogenous, Jurkat T-cells); assay: cell-based or functional assay
Ena/VASP proteins = assay: cell-based or functional assay
[2] = biological target: T1, zyxin (endogenous, Jurkat T-cells); assay: co-immunoprecipitation from Jurkat T-cell lysate with WASP mAb 67B4, blot probed with zyxin mAb
Method: After quick pelleting, stimulated and control cells were resuspended and incubated in DMEM/HEPES containing 15 λg/ml goat anti mouse IgG antibodies at 37° C. for 2 min. Jurkat NP-40 lysates were prepared at 1×10⁸ cells/ml in ice cold NP-40 lysis buffer (1% (v/v) NP-40, 150 mm NaCl, 10 mM Tris-Cl pH 7.8) supplemented with 60 μg/ml chymostatin, 10 g/ml pepstatin, 5 μg/ml leupeptin, 2 μg/ml aprotinin, 2 mM Pefabloc (Roche Diagnostics), 1 mM Na₃VO₄, and 10 mM NaF. […] Immunoprecipitations were carried out according to standard protocols using 0.2 ml of Jurkat NP-40 lysates derived from 2×10^7 cells.
Immunoprecipitates were resolved by SDS-PAGE. As positive control, Jurkat E6-1 lysates were used.

Row | Molecule | length of the contact zone between the beads and Jurkat T-cells [1] [µm] | length of the contact zone between Jurkat T-cells and anti CD3-coated beads (Ena/VASP proteins) [µm] | also measured
1 | myc-tagged ScarWA (from UniProt Q92558 443-559) | 3.16 |  | 
2 | GFP-ActA-Repeats F>A |  | 5.16 | 
3 | GFP-ActA-Repeats |  | 3.84 | 
4 | myc-tagged ScarW (from UniProt Q92558 443-543) | 5 |  | 
5 | B1 |  |  | binding result [2]: no binding
